Like-named read-outs stand apart in the source and are kept apart here.
Assays:
primary human T-cells = assay: 4-IPO toxicity in transduced primary T-cells; format: cell-based; conditions: for killing of primary T-cells with 4-IPO (in words): 24 h and 72 h exposure to increasing doses of 4-IPO, EGFP fusions, FIG. 7 B
From the text: Compared to the HepG2 liver cells, primary T-cells might not provide an optimal environment for the function of P450 cytochromes (although the necessary reductase is ubiquitously expressed) and the infection of primary T-cells is considerably more complex.
The T cells were isolated by Ficoll and stimulated with CD3, CD28 and IL2 for 3 days before they were infected with lentiviral vectors using fibronectin. For optimal toxicity in T cells, the suicide genes were not expressed as EGFP fusions proteins but a IRES-EGFP-WPRO vector construct was used. […] However, after 24 hours over 70% of the transgenic T cells were eliminated by CYP4B1 P427 mut12. […] The determination of the virus titer was based on the titration of the reference cell line HT1080.

HepG2 cells [1] = assay: 4-IPO toxicity assay: survival of transduced HepG2 cells by flow cytometry (propidium iodine); format: cell-based, human; conditions: for 4-IPO processing activity / cell killing (in words): transduced cells challenged with 4-IPO; for transduced HepG2 cells eliminated / dead: after 24 hours of 4-IPO treatment
From the text: Initially, the serine at position 427 in the human CYP4B1 was mutated back to proline (h-P427), which is present at this position in all CYP4B1 proteins. Additionally a proline to serine exchange was created in the native rabbit CYP4B1 enzyme at the corresponding position 422 (r-P422). To immediately exclude the possibility that the different activities between human and the rabbit protein isoforms are simply due to differences in mRNA stability, the human CYP4B1 cDNA (SEQ ID NO.: 2) was optimized for human-codon usage (SEQ ID NO.: 3) by de novo synthesis with silent mutagenesis of the cDNA, thus removing internal TATA-boxes, instability motives, RNA secondary structures and (cryptic) splice donor/acceptor sites and ensuring an average GC content of around 60%. All cDNAs were cloned into the same lentiviral (LV) HIV1-based expression vector and LV supernatants produced by plasmid transfection in HEK293T cells. Subsequently, the two rabbit and the four human cDNAs were stably expressed in the human liver cell line HepG2. Stably expressing transduced cells were challenged after five days with increasing concentrations of 4-IPO for 24, 48 and 72 hours and then the survival of cells analyzed by flow cytometry using propidium iodine for live/dead cell discrimination.
(§1) Next, it was analyzed whether the different activities of the human and the rabbit proteins in processing 4-IPO could be explained by differences in protein half-life. However, as no antibody was available that can detect both CYP4B1 proteins, EGFP fusion constructs were generated. With these constructs, EGFP antibodies can be utilized to visualize and compare the expression levels and the half-lives of the fusion proteins in cells by western blots. EGFP expression can also be used for flow cytometry assessment of the expression levels due to the fluorescent properties of the fusion proteins. 5′- and 3′-fusions of EGFP with the native rabbit P422 and the human P427 CYP4B1 proteins were cloned in LV vectors with an IRES-NEO (NEO=neomycin phosphotransferase cDNA, npt II) and stably expressed in HepG2 cells (FIG. 3 B). For comparison, the corresponding IRES-EGFP constructs were also included, as these vectors had already been used in previous experiments and activity measurements thus already existed. Transduced cells were incubated for 24, 48 and 72 hours with increasing concentration of 4-IPO. Cultures were then harvested, cells stained with propidium iodine and subsequently analyzed for survival of transduced EGFP+ cells by flow cytometry (FIG. 3 A).

HepG2 cells [2] = assay: Half-life of CYP4B1/EGFP fusion proteins after cycloheximide (western blot, FACS); format: cell-based, human; conditions: EGFP fusion; for protein half-life: 50 μg/ml cycloheximide, G418-selected HepG2 cells
Method: FIGS. 3 C and D show CYP4B1 stability as analysed by western blotting and by flow cytometry. The studies on protein expression and stability were performed with the rabbit and human CYP4B1/EGFP fusion construction in the lentiviral vector with the additional IRES-neomycin cassette. Half-life analysis was performed by adding 50 μg/ml cycloheximide to the transduced and G418-selected HepG2 cells. Samples were collected at the indicated time points.
as §1
After standard inhibition of de novo protein synthesis by cycloheximide, the half-life of the CYP4B1 proteins in stably transduced and G418-resistant HepG2 cells was assessed by determining the protein expression levels over time either in western blotting or in FACS analysis as EGFP fluorescence. […] For the human native protein (h-S427), the mean fluorescence indicates a short average half-life of only 6 hours.

[3] = relative to rabbit CYP4B1, cited from earlier work

Molecule | killing of primary T-cells with 4-IPO (in words) (primary human T-cells) | 4-IPO processing activity / cell killing (in words) (HepG2 cells [1]) | protein half-life (HepG2 cells [2]) | transduced HepG2 cells eliminated / dead (HepG2 cells [1]; FIG. 2) | further results
h-P427: human CYP4B1 with serine at position 427 mutated back to proline (protein) MVPSFLSLSFSSLGLWASGLILVLGFLKLIHLLLRRQTLAKAMDKFPGPPTHWLFGHALEIQETGSLDKVVSWAHQFPYAHPLWFGQFIGFLNIYEPDYAKAVYSRGDPKAPDVYDFFLQWIGKGLLVLDGPKWFQHRKLLTPGFHYDVLKPYVAIFADSTRIMLEKWEKKACEGKSFDIFSDVGHMALDTLMKCTFGKGDSGLNHRDSSYYVAVSELTLLMQQRIDSFQYHNDFIYWLTPHGRRFLRACQVAHDHTDQVIRERKAALQDEKVRKKIQNRRHLDFLDILLGARDEDDIKLSDADLRAEVDTFMFEGHDTTTSGISWFLYCMALYPEHQHRCREEVREILGDQDFFQWDDLGKMTYLTMCIKESFRLYPPVPQVYRQLSKPVTFVDGRSLPAGSLISMHIYALHRNSAVWPDPEVFDPLRFSTENASKRHPFAFMPFSAGPRNCIGQQFAMSEMKVVTAMCLLRFEFSLDPSRLPIKMPQLVLRSKNGFHLHLKPLGPGSGK | can be killed within three days | rendered this enzyme active for processing 4-IPO | 20 h |  | reduction in cell survival rates (HepG2 cells [1]; transduced cells with 4-IPO, FIG. 2): about 50%; cell survival rates upon administration of 4-IPO (HepG2 cells [1]; transduced cells, FIG. 2): about 45%
CYP4B1 P427 mut12: modified human CYP4B1 P427 protein comprising 12 further amino acid exchanges found in other human CYP4 proteins (protein) MVPSFLSLSFSSLGLWASGLILVLGFLKLIHLLLRRQTLAKAMDKFPGPPTHWLFGHALEIQETGSLDKVVSWAHQFPYAHPLWFGQFIGFLNIYEPDYAKAVYSRGDPKAPDVYDFFLQWIGKGLLVLDGPKWFQHRKLLTPGFHYDVLKPYVAIFADSTRIMLDKWEKKAREGKSFDIFCDVGHMALDTLMKCTFGKGDSGLGHRDSSYYLAVSELTLLMQQRIVSFQYHNDFIYWLTPHGRRFLRACQVAHDHTDQVIRERKAALQDEKVRKKIQNRRHLDFLDILLGARDEDDIKLSDADLRAEVDTFMFEGHDTTTSGISWFLYCMALYPEHQHRCREEVREILGDQDFFQWDDLGKMTYLTMCIKESFRLYPPVPQVYRQLSKPVTFVDGRSLPAGSLISMHIYALHRNSAVWPDPEVFDPLRFSTENASKRHPFAFMPFSAGPRNCIGQQFAMSEMKVVTAMCLLRFEFSLDPSRLPIKMPQLVLRSKNGFHLHLKPLGPGSGK |  | equally good killing curve as the modified human CYP4B1 P427 mut18 |  |  | transgenic T cells eliminated (primary human T-cells; after 24 hours, 4-IPO, IRES-EGFP-WPRO vector, FIG. 17): over 70%
r-P422: wildtype rabbit CYP4B1 enzyme (protein, listed as Oryctolagus cuniculus) MLGFLSRLGLWASGLILILGFLKLLRLLLRRQRLARAMDSFPGPPTHWLFGHALEIQKTGSLDKVVTWTQQFPYAHPLWVGQFIGFLNIYEPDYAKAVYSRGDPKAPDVYDFFLQWIGKGLLVLDGPKWFQHRKLLTPGFHYDVLKPYVAIFADSTRIMLEKWEKKACEGKSFDIFSDVGHMALDTLMKCTFGKGDSGLNHRDSSYYVAVSELTLLMQQRIDSFQYHNDFIYWLTPHGRRFLRACRAAHDHTDRVIRQRKAALQDEKEREKIQNRRHLDFLDILLDVRGESGVQLSDTDLRAEVDTFMFEGHDTTTSGISWFLYCMALYPEHQQRCREEVREILGDQDSFQWEDLAKMTYLTMCMKECFRLYPPVPQVYRQLSKPVSFVDGRSLPAGSLISLHIYALHRNSDVWPDPEVFDPLRFSPENSSGRHPYAFIPFSAGPRNCIGQQFAMNEMKVVTALCLLRFEFSVDPLRLPIKLPQLVLRSKNGIHLYLKPLGPK | more active than the native P427 and the human codon-optimized P427 CYP4B1 enzymes |  |  | over 95% | protein stability (in words) (HepG2 cells [2]; cycloheximide, HepG2 cells): strongest protein stability
h-S427: native human CYP4B1 protein with serine at position 427 (protein, listed as Homo sapiens) MVPSFLSLSFSSLGLWASGLILVLGFLKLIHLLLRRQTLAKAMDKFPGPPTHWLFGHALEIQETGSLDKVVSWAHQFPYAHPLWFGQFIGFLNIYEPDYAKAVYSRGDPKAPDVYDFFLQWIGRGLLVLEGPKWLQHRKLLTPGFHYDVLKPYVAVFTESTRIMLDKWEEKAREGKSFDIFCDVGHMALNTLMKCTFGRGDTGLGHRDSSYYLAVSDLTLLMQQRLVSFQYHNDFIYWLTPHGRRFLRACQVAHDHTDQVIRERKAALQDEKVRKKIQNRRHLDFLDILLGARDEDDIKLSDADLRAEVDTFMFEGHDTTTSGISWFLYCMALYPEHQHRCREEVREILGDQDFFQWDDLGKMTYLTMCIKESFRLYPPVPQVYRQLSKPVTFVDGRSLPAGSLISMHIYALHRNSAVWPDPEVFDSLRFSTENASKRHPFAFMPFSAGPRNCIGQQFAMSEMKVVTAMCLLRFEFSLDPSRLPIKMPQLVLRSKNGFHLHLKPLGPGSGK |  |  | 6 h |  | 4-IPO processing activity / cell killing (in words) (HepG2 cells [1]; listed as native CYP4B1 protein): comparable to the survival rate of non-transduced control cells; 4-IPO processing activity / cell killing (in words) (HepG2 cells [1]; listed as native human CYP4B1 S427 protein): cannot process 4-IPO at all; activity to activate 4-IPO compared to the rabbit CYP4B1 [3]: > 1%; activity to activate 4-IPO compared to the rabbit CYP4B1 ([3]; listed as human isoform): ≤ 1%
r-S422: rabbit CYP4B1 with proline-to-serine exchange at position 422 (protein, UniProt P15128 1-506, looked up, variant P422S) Cytochrome P450 4B1: MLGFLSRLGLWASGLILILGFLKLLRLLLRRQRLARAMDSFPGPPTHWLFGHALEIQKTGSLDKVVTWTQQFPYAHPLWVGQFIGFLNIYEPDYAKAVYSRGDPKAPDVYDFFLQWIGKGLLVLDGPKWFQHRKLLTPGFHYDVLKPYVAIFADSTRIMLEKWEKKACEGKSFDIFSDVGHMALDTLMKCTFGKGDSGLNHRDSSYYVAVSELTLLMQQRIDSFQYHNDFIYWLTPHGRRFLRACRAAHDHTDRVIRQRKAALQDEKEREKIQNRRHLDFLDILLDVRGESGVQLSDTDLRAEVDTFMFEGHDTTTSGISWFLYCMALYPEHQQRCREEVREILGDQDSFQWEDLAKMTYLTMCMKECFRLYPPVPQVYRQLSKPVSFVDGRSLPAGSLISLHIYALHRNSDVWPDPEVFDSLRFSPENSSGRHPYAFIPFSAGPRNCIGQQFAMNEMKVVTALCLLRFEFSVDPLRLPIKLPQLVLRSKNGIHLYLKPLGPKAEK |  |  | approx. 30 hours | 73% | 
